Data: US20260139057A1 (University of California, published 2026)
Residue numbers refer to the chain shown, from its start.

Key:
[1] = molecular target: T1, recombinant human integrin αvβ8 ectodomain (human, UniProt P06756 31-992; P26012 43-681); test: cell-based or functional assay
[2] = molecular target: T1, recombinant human integrin αvβ8 …; test: cell-based or functional assay; remark: listed apart in the source
[3] = molecular target: T1, recombinant human integrin αvβ8 …; test: KinExA, solution-based affinity; antigen form not stated
Text: Samples with serial dilutions are drawn over solid-phase beads coupled with one binding partner to capture the complimentary binding molecule, which is detected by flow of fluorophore-labeled antibody solution binding to a separate epitope on the same molecule being measured. Signals are used to calculate free concentration in solution after equilibrium is reached (i.e. to determine binding affinity KD), or under pre-equilibrium conditions over time (i.e. to determine binding kinetics). Free antigen remaining in solution at equilibrium for varying initial antibody concentrations in constant initial concentration of antigen as determined by the KinExA software, based on optimized least-squares fitting to a reversible binding equation.
A Kinetic Exclusion Assay (KinExA®, Sapidyne Instruments, Inc., Boise, ID) was used to measure the binding affinity of H4C8 (Seq ID NOs. 34, 35) produced with the CH1-CH3 domain from IgG4 (Seq ID NO: 59). […] Samples with serial dilutions are drawn over solid-phase beads coupled with one binding partner to capture the complimentary binding molecule, which is detected by flow of fluorophore-labeled antibody solution binding to a separate epitope on the same molecule being measured. […]

[4] = molecular target: T2, integrin αvβ6 ectodomain (immobilized) (human, UniProt P06756 31-992; P18564 22-709); test: ELISA on immobilized integrin ectodomains plated at 1 µg/ml, blocked with 1% BSA
T2 construct: extracellular domain; Bought from R&D Systems or made in ExpiCHO cells; also called immobilized human αvβ6
Experimental: (§1) FIG. 20: H4C8 maintains ability to block αvβ8-mediated TGF-β activation similar to HuC6D4F12 while maintaining specificity for αvβ8. A) Shown are inhibition curves for the indicated antibody abilities to block the ability of immobilized human αvβ8 to activate human L-TGF-β presented on the cell surface of TMLC by GARP. The assays were performed exactly as described in (Seed et al, Sci Immunol, 2021 and Campbell, et al, Cell 2019). The estimated ED50 values are shown. The antibodies used were HuC6D4 IgG2a, HuC6D4F12 IgG2a or H3.H12, H4C8 or H4C8m (murine VL Fr4) as human IgG4. B) The specificity of H4C8 was tested against immobilized ectodomains of αvβ1, αvβ3, αvβ5, αvβ6 and αvβ8 (either purchased from R &D systems or produced in ExpiCHO cells. All ectodomains were plated at 1 μg/ml and after washing, wells were blocked with 1% BSA. The indicated antibodies (either human IgG4 isotype or H4C8 IgG4).

[5] = molecular target: T3, integrin αvβ1 ectodomain (immobilized) (Homo sapiens (Human), UniProt P06756 31-992; P05556 21-728); test: as above
T3 construct: R&D Systems; copies: 1 + 1
T3 sequence (P06756 31-992 limits assumed, chain 1 of 2): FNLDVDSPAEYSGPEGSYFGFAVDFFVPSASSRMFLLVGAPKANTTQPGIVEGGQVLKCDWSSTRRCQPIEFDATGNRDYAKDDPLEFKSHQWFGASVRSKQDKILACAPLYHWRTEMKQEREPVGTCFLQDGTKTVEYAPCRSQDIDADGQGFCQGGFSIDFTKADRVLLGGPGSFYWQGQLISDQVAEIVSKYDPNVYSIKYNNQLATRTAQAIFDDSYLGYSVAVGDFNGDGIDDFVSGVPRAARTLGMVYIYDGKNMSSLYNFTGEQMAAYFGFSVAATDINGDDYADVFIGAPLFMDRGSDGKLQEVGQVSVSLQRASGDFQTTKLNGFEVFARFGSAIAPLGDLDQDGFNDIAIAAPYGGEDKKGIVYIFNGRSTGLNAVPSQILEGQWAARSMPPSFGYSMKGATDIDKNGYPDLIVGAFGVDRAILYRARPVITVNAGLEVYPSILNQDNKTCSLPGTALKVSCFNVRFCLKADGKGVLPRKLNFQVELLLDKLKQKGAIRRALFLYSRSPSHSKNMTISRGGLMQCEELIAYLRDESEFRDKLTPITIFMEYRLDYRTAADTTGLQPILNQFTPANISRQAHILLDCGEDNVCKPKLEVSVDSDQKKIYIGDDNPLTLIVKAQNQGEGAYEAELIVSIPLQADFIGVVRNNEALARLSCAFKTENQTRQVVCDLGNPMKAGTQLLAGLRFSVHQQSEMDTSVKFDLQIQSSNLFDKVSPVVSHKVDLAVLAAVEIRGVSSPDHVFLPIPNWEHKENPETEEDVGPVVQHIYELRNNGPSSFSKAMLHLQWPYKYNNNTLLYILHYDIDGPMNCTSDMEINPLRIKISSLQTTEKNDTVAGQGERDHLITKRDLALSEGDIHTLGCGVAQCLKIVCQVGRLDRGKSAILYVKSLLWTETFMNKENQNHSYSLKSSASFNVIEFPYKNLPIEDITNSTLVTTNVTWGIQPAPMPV
T3 sequence (P05556 21-728 limits assumed, chain 2 of 2): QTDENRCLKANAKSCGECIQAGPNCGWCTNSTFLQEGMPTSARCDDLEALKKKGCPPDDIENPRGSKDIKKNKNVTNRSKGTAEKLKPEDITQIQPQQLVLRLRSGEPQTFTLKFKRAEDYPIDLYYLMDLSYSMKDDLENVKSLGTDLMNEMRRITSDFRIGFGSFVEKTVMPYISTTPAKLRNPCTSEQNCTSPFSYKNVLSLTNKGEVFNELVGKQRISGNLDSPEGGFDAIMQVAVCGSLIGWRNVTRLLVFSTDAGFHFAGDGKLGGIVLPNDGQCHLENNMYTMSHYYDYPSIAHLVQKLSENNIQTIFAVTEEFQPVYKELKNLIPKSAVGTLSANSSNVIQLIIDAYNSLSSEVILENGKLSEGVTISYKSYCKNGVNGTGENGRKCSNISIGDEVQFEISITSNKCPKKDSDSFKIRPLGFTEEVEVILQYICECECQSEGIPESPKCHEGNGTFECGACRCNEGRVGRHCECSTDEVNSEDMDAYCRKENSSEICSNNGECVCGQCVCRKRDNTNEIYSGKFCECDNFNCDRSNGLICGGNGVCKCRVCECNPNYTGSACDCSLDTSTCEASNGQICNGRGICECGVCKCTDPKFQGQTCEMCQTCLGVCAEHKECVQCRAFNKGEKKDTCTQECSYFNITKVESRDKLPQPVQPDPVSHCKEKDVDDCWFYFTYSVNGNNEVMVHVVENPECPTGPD
Experimental: as §1

[6] = molecular target: T4, integrin αvβ3 ectodomain (immobilized) (Homo sapiens (Human), UniProt P06756 31-992; P05106 27-718); test: as above
T4 construct: Bought from R&D Systems or made in ExpiCHO cells; copies: 1 + 1
Experimental: as §1

[7] = molecular target: T5, integrin αvβ5 ectodomain (immobilized) (Homo sapiens (Human), UniProt P06756 31-992; P18084 24-719); test: as above
T5 construct: R&D Systems; copies: 1 + 1
T5 sequence (P06756 31-992 limits assumed, chain 1 of 2): as the sequence (P06756 31-992 limits assumed, chain 1 of 2) above
T5 sequence (P18084 24-719 limits assumed, chain 2 of 2): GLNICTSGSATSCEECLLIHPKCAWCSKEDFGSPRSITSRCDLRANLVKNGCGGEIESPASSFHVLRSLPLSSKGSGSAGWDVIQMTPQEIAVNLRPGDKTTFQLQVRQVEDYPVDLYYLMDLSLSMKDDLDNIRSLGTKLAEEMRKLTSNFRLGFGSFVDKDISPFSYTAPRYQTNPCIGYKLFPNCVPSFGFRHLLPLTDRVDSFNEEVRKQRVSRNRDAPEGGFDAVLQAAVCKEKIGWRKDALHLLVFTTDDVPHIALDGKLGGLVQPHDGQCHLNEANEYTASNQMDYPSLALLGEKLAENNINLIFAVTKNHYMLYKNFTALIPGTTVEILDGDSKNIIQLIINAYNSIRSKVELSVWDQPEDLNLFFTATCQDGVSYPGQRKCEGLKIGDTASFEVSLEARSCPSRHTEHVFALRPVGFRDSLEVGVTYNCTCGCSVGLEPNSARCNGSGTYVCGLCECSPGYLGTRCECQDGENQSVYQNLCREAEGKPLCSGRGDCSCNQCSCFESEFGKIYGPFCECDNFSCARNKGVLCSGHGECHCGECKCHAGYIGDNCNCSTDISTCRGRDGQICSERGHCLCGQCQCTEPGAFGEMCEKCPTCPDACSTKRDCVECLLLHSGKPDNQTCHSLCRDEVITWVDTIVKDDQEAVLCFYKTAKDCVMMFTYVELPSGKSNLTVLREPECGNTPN
Experimental: as §1

[8] = molecular target: T6, human integrin αvβ8 on transfected cells (CHO cells stably transfected; HEK 293 cells stably expressing αvβ8) (human, UniProt P06756 31-1048; P26012 43-769); test: flow cytometry on unfixed CHO cells expressing human αvβ8, antibody titrated, hyperbolic least-squares fit (m3 = KD); curves on D00025 [Cont.]
T6 construct: whole, on cells; also called CHO αvβ8 cells; αvβ8 expressing CHO cells
T6 sequence (P06756 31-1048, chain 1 of 2): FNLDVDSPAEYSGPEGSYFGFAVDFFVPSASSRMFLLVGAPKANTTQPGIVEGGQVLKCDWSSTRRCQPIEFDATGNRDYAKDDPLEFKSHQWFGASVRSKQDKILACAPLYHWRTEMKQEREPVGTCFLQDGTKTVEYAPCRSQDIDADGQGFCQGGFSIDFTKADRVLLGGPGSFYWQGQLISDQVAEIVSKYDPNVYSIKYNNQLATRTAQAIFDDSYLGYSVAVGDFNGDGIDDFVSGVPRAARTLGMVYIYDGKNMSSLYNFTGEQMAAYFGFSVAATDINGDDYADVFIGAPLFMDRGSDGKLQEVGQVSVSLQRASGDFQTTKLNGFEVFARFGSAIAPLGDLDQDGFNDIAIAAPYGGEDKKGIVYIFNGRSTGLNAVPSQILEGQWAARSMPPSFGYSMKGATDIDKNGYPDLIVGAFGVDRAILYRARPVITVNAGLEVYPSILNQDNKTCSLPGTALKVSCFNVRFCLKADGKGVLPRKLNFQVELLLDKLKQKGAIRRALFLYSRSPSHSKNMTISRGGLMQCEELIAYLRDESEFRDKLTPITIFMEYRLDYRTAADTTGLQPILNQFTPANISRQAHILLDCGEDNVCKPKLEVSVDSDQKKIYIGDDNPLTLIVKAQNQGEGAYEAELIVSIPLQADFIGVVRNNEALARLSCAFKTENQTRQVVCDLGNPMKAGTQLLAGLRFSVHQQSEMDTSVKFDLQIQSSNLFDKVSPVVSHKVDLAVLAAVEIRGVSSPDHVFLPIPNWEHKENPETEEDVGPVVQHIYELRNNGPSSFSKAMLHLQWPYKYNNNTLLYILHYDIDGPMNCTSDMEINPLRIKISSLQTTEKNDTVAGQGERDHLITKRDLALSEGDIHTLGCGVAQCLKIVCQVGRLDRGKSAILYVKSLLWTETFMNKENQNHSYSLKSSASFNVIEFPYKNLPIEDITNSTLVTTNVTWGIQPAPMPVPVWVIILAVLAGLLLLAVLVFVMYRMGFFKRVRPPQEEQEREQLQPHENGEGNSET
T6 sequence (P26012 43-769, chain 2 of 2): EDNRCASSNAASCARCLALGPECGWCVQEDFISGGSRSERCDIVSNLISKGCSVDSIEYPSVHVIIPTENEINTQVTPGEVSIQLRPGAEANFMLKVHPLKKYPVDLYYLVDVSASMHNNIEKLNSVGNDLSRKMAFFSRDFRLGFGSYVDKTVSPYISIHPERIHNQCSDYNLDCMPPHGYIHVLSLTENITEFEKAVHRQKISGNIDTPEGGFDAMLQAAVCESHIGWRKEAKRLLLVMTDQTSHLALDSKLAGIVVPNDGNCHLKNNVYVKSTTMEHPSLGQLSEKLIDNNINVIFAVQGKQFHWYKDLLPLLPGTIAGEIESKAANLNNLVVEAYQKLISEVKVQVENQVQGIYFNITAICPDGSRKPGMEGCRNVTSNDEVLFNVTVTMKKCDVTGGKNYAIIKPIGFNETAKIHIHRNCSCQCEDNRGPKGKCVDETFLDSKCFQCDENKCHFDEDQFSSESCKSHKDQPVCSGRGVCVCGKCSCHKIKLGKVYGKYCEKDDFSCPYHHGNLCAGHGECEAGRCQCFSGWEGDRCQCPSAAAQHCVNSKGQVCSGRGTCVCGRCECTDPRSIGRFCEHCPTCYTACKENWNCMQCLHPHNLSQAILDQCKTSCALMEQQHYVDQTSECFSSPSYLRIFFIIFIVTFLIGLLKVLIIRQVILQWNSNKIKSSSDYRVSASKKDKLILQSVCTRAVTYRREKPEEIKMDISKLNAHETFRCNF
Experimental: (§2) FIG. 17: Characterization of cell surface binding of humanized affinity optimized anti-αvβ8 antibodies. The cell surface binding affinities of H4C8, H4G9, H4C10, H4G8 compared to HuC6D4F12 expressed as IgG4 (S228P to prevent arm exchange, R409K and L445P to reduce aggregation and to promote stability). […] Cell surface affinity was determined using the least-squares fit model based on the hyperbolic equation y=m1+m2*m0/(m3+m0), where y=MFI at different avb8 concentrations; m0=αvβ8 concentration; m1=MFI with no αvβ8; m2=MFI at saturation; and m3=KD.
(§3) FIG. 18: Binding characteristics of H4C8 of formalin fixed αvβ8 compared to HuC6D4F12 or ADWA11 2.4 (from Pat no. US2020/0079855 A1). CHO αvβ8 expressing cells were fixed in 2% buffered formalin in PBS for 15 min at RT and then stained at the indicated concentrations as described in FIG. 17. The binding affinities to unfixed or formalin fixed cells is shown. Cell surface affinity was determined using the least-squares fit model based on the hyperbolic equation y=m1+m2*m0/(m3+m0), where y=MFI at different αvβ8 concentrations; m0=αvβ8 concentration; m1=MFI with no αvβ8; m2=MFI at saturation; and m3=KD.

[9] = molecular target: T6, human integrin αvβ8 on transfected …; test: flow cytometry on CHO cells expressing human αvβ8 fixed in 2% buffered formalin for 15 min, antibody titrated, hyperbolic least-squares fit (m3 = KD); curves on D00025 [Cont.]
Experimental: as §2, §3

[10] = molecular target: T6, human integrin αvβ8 on transfected …; test: flow cytometry, surface binding to CHO αvβ8 cells

T1 sequence (P06756 31-992 limits assumed, chain 1 of 2): as the sequence (P06756 31-992 limits assumed, chain 1 of 2) above
T1 sequence (P26012 43-681 limits assumed, chain 2 of 2): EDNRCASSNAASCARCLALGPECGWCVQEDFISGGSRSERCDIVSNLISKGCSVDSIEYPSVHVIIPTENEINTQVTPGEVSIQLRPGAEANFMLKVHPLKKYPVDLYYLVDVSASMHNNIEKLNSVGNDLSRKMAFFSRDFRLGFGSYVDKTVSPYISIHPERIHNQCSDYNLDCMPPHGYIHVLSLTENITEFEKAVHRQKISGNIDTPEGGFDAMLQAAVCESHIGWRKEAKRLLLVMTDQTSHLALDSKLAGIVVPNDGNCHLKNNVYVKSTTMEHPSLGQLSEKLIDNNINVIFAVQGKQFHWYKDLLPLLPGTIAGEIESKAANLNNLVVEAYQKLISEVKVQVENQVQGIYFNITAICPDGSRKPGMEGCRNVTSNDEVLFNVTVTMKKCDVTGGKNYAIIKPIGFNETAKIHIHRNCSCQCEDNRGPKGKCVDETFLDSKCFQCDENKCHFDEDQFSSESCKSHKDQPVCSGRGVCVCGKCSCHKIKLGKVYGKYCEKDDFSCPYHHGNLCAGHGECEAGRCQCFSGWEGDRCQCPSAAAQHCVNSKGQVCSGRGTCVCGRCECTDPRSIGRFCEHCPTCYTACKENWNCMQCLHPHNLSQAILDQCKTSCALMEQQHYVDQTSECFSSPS

B1: H4C8 human IgG4 (antibody, V domains shown)
VH: QVQLVQSGAEVKKPGASVKVSCKVSGYTLTRQSMHWVRQAPGKGLEWMGRINTETGEPTYAQKFQGRVTMTQDTSTDTAYMELSSLRSEDTAVYFCAIFYYGRDTWGQGTTVTVSS
VL: EIVMTQSPATLSVSPGERVTLSCRSSQSLLHSRSRKNYLAWYQQKPGQAPRLLIYWASTRETGVPARFSGSGSGTEFTLTISSLQSEDFAVYYCKQSYNLLSFGQGTKVEIKR
notes: also called H4C8 IgG4
For B1, the “EC50 of inhibition of αvβ8-mediated TGF-β activation” value [1] was 100 nM, the “ED50 of the inhibition of αvβ8-mediated TGF-β activation (immobilized αvβ8, TMLC GARP/L-TGF-β reporter cells)” value [2] was 0.01 µg/mL and the Kd [3] was 0.00707 nM. B1: no binding [4]; no binding [5]; no binding [6]. For the same binder, the binding result [7] was “no binding”, the Kd [8] was 2.6 nM and the Kd [9] was 3.6 nM.

B2: Clone H1.1 as human IgG4 (antibody, V domains shown)
VH: B1 VH with R31K, Q32L, T55D, T59I, Q72E, F95Y, T105S, V112L
VL: B1 VL with V19A, S25A, S34T, E61A, V64I, K108V, V109L
B2 was tested, and the “fold lower affinity than F12 mouse IgG2a” value [10] was 70 fold.
